According to the nanobody polyreactivity screen of Harvey et al. (2022):

Assay: yeast display, Sf9 membrane polyspecificity reagent, FACS + sequencing; frameworks hold sequencing errors
Outline: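 Genes from sorted yeast were amplified by colony PCR, read by MiSeq 2 × 250 sequencing and filtered on CDR length. These cells carried a synthetic nanobody library in Saccharomyces cerevisiae BJ5465 and were sorted by FACS into low and high (top ~1%) gates on anti-HA and streptavidin fluorescence. Polyreactivity is labelled according to the gate of origin.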

Sequence | polyreactivity (PSR sort gate)
QVQLVESGGGLVQAGGSLRLSCAASGSTIQYYTMGWYRQAPGKERELVASITSGDSTNYADSVKGRFTISRDNAKNTVYLQMNSLKPEDTAVYYCARDRVSTQLQSSPAVSELYYWGQGTQVNVSS | low polyreactivity
QVQLVESGGGLVQAGGSLRLSCAASGSTIRNYAMGWYRQAPGKERELVAAISSGGRTYYADSVKGRFTISRDNAKNTVYLQMNSLKPEDTAVYYCYTPYTVRGRYSYDYWGQGTQVTVSS | high polyreactivity
QVQLVESGGGLVQAGGSLRLSCAASGSTIRQNAMGWSSQAPGKEMELVAAITYTGGSTYYADSVKGRYTISRDNAKNTVYLEMNSLKPEDTSVYYCAATYLSYYHGWVNYWGEGTQVTVSS | high polyreactivity
QVQLVESGGGLVQAGGSLRLSCAASGSTIRRYAMGWSRQAPGKERELVAAITRSGGSTYYADSVKGRFTISRDNAKNTVYLQMNSLKPEDTEVYYCAADTGTGLDWGQGTQVTVSS | high polyreactivity
QVQLVESGGGLVQAGGSLRLSCAASGSTIRYYVKGWYRQAPGKERELVAAISYNGGSTYYADSVKGRFTISRDTAKNTVYLHMNSVTPEDTAVYYCAADAPYRSSGKDYWGQGTQVTVSS | high polyreactivity
QVQLVESGGGLVQAGGSLRLSCAASGSTISVNAMGWYRQAPGKERELVAAISDRGGSTYYADSVKGRFTISRDNAKNTVYLQMNSLKPEDTAVYYCAALFLRVTYFRLGLYSYEYWGQGTQVTVSS | low polyreactivity
QVQLVESGGGLVQAGGSLRLSCAASGSTITYNAMGWYRQAPGKERELVAAITVSDGSTYYADSVKGRFTISRDNAKNTVYLQMNSLKPEDTAVYYCNKDRGHPFKYDYWGQGTQVTVSS | low polyreactivity
QVQLVESGGGLVQAGGSLRLSCAASGSTIVGYAMGWYRQAPGKERELVAAISRTGASTYYADSVKGRFTISRDNAKNTVYLQMISLKPEDTAVYYCAAGREYWGVTREYWGQGTQVTVSS | high polyreactivity
QVQLVESGGGLVQAGGSLRLSCAASGSTIVQNAMGWYRQAPAKERELVAAISRTGGSTYYADSVKGRFTISRDNAKNTVYLQMNSLKPEDTAVYYCAKRPPHYSWPKLIEFGSWGQGNQVTVSS | high polyreactivity
QVQLVESGGGLVQAGGSLRLSCAASGSTIWPYTMGWYRQAPGKERELVAAITLRGGTTYYADSVKGRFTISRDNAKNTVYLQMNSLKPEDTVVYYCNATSGNPASTAWMNYWGQGTQVTVSS | low polyreactivity
QVQLVESGGGLVQAGGSLRLSCAASGSTIWRNTMGWYRQAPGKERELVADIRNVGSTYYADSVKGLFTISRDNAKNTVYLQMNSLKPEDTAVYYCYARWRFLYDYWGQGTQVTVSS | high polyreactivity
QVQLVESGGGLVQAGGSLRLSCAASGSTIYDYTMGWYRQAPGKERELVAAISSDGSTYYADSVKGRFTISRDNAKITVYLKMNSLKPEDTAVYYCNADAGFLSLRGYDYWGQGTQVTVSS | low polyreactivity
QVQLVESGGGLVQAGGSLRLSCAASGSTIYHYTMECYRQAPGKERELVAAITYSGGRTYYADSVKGRFTISRDNAKNTVYLQMNSLKPEDTAVYYCAATYSTPGAGYYHYWGQGTQVTVSS | high polyreactivity
QVQLVESGGGLVQAGGSLRLSCAASGSTIYRYAMGWYRQAPGKERELVATISRTGARTNYADSVKGRFTISRDNAKNTVYLQMNSLKPEDTAVYYCAASAPYIYYWGQGTQVTVSS | high polyreactivity
QVQLVESGGGLVQAGGSLRLSCAASGSTIYYNAMGWYRQAPGKERELVATITSAGRTNYADSVKGRFTISRDNAKNTVSLLMNSLKPEDTAVYYCNARYRLSRYNYWGQGTQVNVSS | low polyreactivity
QVQLVESGGGLVQAGGSLRLSCAASGSTLAGYAMGWYRPAPGKERELVAAIDWTGGSTTYADSVKGRFTISRDNAKNTVYLQMNSLKPEDTAVYYCNVDLGVNGDYWGQGTQVTVSS | low polyreactivity
QVQLVESGGGLVQAGGSLRLSCAASGSTLAIYAMGWYRQAPGKEREWVAAISRSGGTTYYADSVKGRFTISRDNAKNTVYLQMNSLKPEDTAVYYCYPYFWYPDGYTYDYWGQGTQVTVSS | high polyreactivity
